What was measured:
Assay in all cases: Fibril incubation with CSF, quantitative MS/MS of bound proteins
[1] = tested on: T1, Ab2 fibrils; format: binding, human; settings: 4:1 w/w CSF protein:fibril
T1 construct: Two structurally distinct fibrils of the Aβ(1–40) peptide associated with AD
Experimental: (§1) Plasma and CSF solutions were centrifuged (40,000 g, 20 min) to remove any aggregates. The protein concentration was determined using 280 nm absorbance assuming 1 Abs = 1 mg/mL. […] Control samples (without fibril material) were prepared similarly. All samples were incubated at room temperature for one hour under gentle agitation. Fibrils and fibril-bound proteins were pelleted by centrifugation at 17,000 g for 30 minutes. The supernatant (175 μL) was removed and the aggregate was re-suspended in 175 μL PBS and pelleted again before further preparation for gel analysis and spin-filter assisted digest for quantitative MS/MS.
(§2) The fibril-protein pellets were transferred to spin-filters (0.22 μm), washed twice in PBS (100 μL) and once in 1 M NaCl (100 μL). The fibrils and fibril-bound proteins were dissolved by one-hour incubation in 100 μL 6 M guanidinium chloride followed by elution from the spin-filter. The eluted proteins were loaded onto a 3 kDa MWCO filter unit for filter-assisted unfolding, reduction, alkylation, and trypsin digestion. In brief, samples were washed twice in 8 M urea, once in 8 M urea with 50 mM DTT, once in 8 M urea with 50 mM iodoaceteamide, and twice in 8 M Urea. The filter units were dried by centrifugation (14,000 g in 30 minutes) after every addition. Trypsin digestion was carried out with 0.25 μg sequencing grade trypsin from Sigma Aldrich in 50 mM ammonium bicarbonate overnight at 37 °C. The tryptic peptides were collected by centrifugation, acidified with TFA (0.1%) and micro-purified using POROS R2 column material (Applied Biosystems) packed in P200 pipette tips (Sarstedt).
(§3) LC-MS/MS analyses were performed on an EASY-nLC II system (Thermo Fisher Scientific) connected to a TripleTOF 5600+ mass spectrometer (Sciex) equipped with a NanoSpray III source (Sciex) and operated under Analyst TF 1.6.0 control.
(§4) The micro-purified tryptic peptides were dissolved in 0.1% formic acid, injected and trapped on an in-house packed trap column (2 cm × 100 μm I.D) with RP ReproSil-Pur C18-AQ 3 μm resin (Dr. Maisch GmbH). Peptides were eluted from the trap column and separated on a 15 cm analytical column (75 μm i.d.) packed in-house in a pulled emitter with RP ReproSil-Pur C18-AQ 3 μm resin (Dr. Maisch GmbH). Elution from the analytical column was performed with a linear gradient from 5% to 35% phase B (90% acetonitrile with 0.1% formic acid) over 20 min for protein identification and 50 min for quantitative analysis, respectively.
(§5) All samples were analysed three times, yielding nine MS/MS experiments for each fibril for both plasma and CSF. For the area-based extracted ion chromatogram (XIC) quantification, the acquisition method was set up as an information-dependent acquisition (IDA) experiment collecting up to 25 MS/MS spectra in each 1.6 sec cycle using an exclusion window of 6 sec.
(§6) XIC quantification was based on the average ion intensity of the three most abundant peptides for each protein. Only proteins quantified in at least four out of nine MS/MS experiments per fibril were included in the quantification. The total ion scores were visualized after grouping the proteins according to function (Figure S11).
(§7) For each MS/MS experiment, the ion intensities of the individual proteins were normalized to the total ion intensity of that MS/MS experiment to achieve a relative protein composition. The contribution of each protein was averaged over all nine MS/MS experiments (Tables 1 and 2).

[2] = biological target: αSN fibrils (Homo sapiens, UniProt P37840); format: binding; design: key to Identification status of CSF protein bound: αSN: *: Identified, but not quantified; —: Not identified in any of the samples; settings: for Identification status of CSF protein bound: αSN: symbol cells
Experimental: as §1, §2, §3, §4, §5, §6, §7

[3] = tested on: T2, FAS4-AD aggregates; format: binding, human; design: key to Identification status of CSF protein bound: FAS4-AD: *: Identified, but not quantified; —: Not identified in any of the samples; settings: symbol cells
T2 construct: aggregates of a mutated version of the FAS1-4 domain of TGFBIp
Experimental: as §1, §2, §3, §4, §5, §6, §7

[4] = biological target: T3, glucagon fibrils (Homo sapiens, UniProt P01275); format: binding; settings: 4:1 w/w CSF protein:fibril
T3 construct: fibrils of the peptide hormone glucagon
T3 sequence (P01275 53-81 limits assumed): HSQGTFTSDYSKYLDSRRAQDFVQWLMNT
Experimental: as §1, §2, §3, §4, §5, §6, §7

[5] = tested on: T4, Ab1 fibrils; format: binding, human; settings: 4:1 w/w CSF protein:fibril
T4 construct: Synthetic amyloid β peptide 1–40 was purchased from Caslo Aps (Lyngby, Denmark); purchased Caslo Aps (Lyngby, Denmark); host or cells: synthetic peptide
Experimental: as §1, §2, §3, §4, §5, §6, §7

[6] = biological target: T5, C-36 fibrils (Homo sapiens, UniProt P01009); format: binding; settings: 4:1 w/w CSF protein:fibril
T5 construct: the 36 residue C-terminal fragment of α1-antitrypsin (C-36)
T5 sequence (P01009 383-418 limits assumed): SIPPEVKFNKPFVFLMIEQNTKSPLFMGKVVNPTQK
Experimental: as §1, §2, §3, §4, §5, §6, §7

B1: Mimecan: CSF protein bound to fibrils (protein, UniProt P20774 21-298, looked up)
Mimecan: PPTQQDSRIIYDYGTDNFEESIFSQDYEDKYLDGKNIKEKETVIIPNEKSLQLQKDEAITPLPPKKENDEMPTCLLCVCLSGSVYCEEVDIDAVPPLPKESAYLYARFNKIKKLTAKDFADIPNLRRLDFTGNLIEDIEDGTFSKLSLLEELSLAENQLLKLPVLPPKLTLFNAKYNKIKSRGIKANAFKKLNNLTFLYLDHNALESVPLNLPESLRVIHLQFNNIASITDDTFCKANDTSYIRDRIEEIRLEGNPIVLGKHPNSFICLKRLPIGSYF
For B1, the “Relative composition of CSF proteins bound: Ab2” value [1] was 0.6 ± 0.2 % of total protein, the “Relative composition of CSF proteins bound: αSN” value ([2]; 4:1 w/w CSF protein:fibril) was 2.1 ± 0.9 % of total protein and the “Identification status of CSF protein bound: FAS4-AD” value [3] was “*”. For the same molecule, the “Relative composition of CSF proteins bound: Glucagon” value [4] was 0.2 ± 0.1 % of total protein, the “Relative composition of CSF proteins bound: Ab1” value [5] was 0.5 ± 0.0 % of total protein and the “Relative composition of CSF proteins bound: C-36” value [6] was 0.4 ± 0.1 % of total protein.

B2: Vitamin D-binding protein: CSF protein bound to fibrils (protein, UniProt P02774 17-474, looked up)
Vitamin D-binding protein: LERGRDYEKNKVCKEFSHLGKEDFTSLSLVLYSRKFPSGTFEQVSQLVKEVVSLTEACCAEGADPDCYDTRTSALSAKSCESNSPFPVHPGTAECCTKEGLERKLCMAALKHQPQEFPTYVEPTNDEICEAFRKDPKEYANQFMWEYSTNYGQAPLSLLVSYTKSYLSMVGSCCTSASPTVCFLKERLQLKHLSLLTTLSNRVCSQYAAYGEKKSRLSNLIKLAQKVPTADLEDVLPLAEDITNILSKCCESASEDCMAKELPEHTVKLCDNLSTKNSKFEDCCQEKTAMDVFVCTYFMPAAQLPELPDVELPTNKDVCDPGNTKVMDKYTFELSRRTHLPEVFLSKVLEPTLKSLGECCDVEDSTTCFNAKGPLLKKELSSFIDKGQELCADYSENTFTEYKKKLAERLKAKLPDATPTELAKLVNKHSDFASNCCSINSPPLYCDSEIDAELKNIL
In the case of B2, the “Relative composition of CSF proteins bound: Ab2” value [1] is reported as 1.1 ± 0.0 % of total protein, the “Identification status of CSF protein bound: αSN” value [2] is reported as “—” and the “Identification status of CSF protein bound: FAS4-AD” value [3] is reported as “—”. The “Relative composition of CSF proteins bound: Glucagon” value [4] was 0.8 ± 0.1 % of total protein, the “Relative composition of CSF proteins bound: Ab1” value [5] was 0.7 ± 0.0 % of total protein and the “Relative composition of CSF proteins bound: C-36” value [6] was 1.4 ± 0.8 % of total protein.

B3: SPARC-like protein 1: CSF protein bound to fibrils (protein, UniProt Q14515 17-664, looked up)
SPARC-like protein 1: IPTNARLLSDHSKPTAETVAPDNTAIPSLRAEAEENEKETAVSTEDDSHHKAEKSSVLKSKEESHEQSAEQGKSSSQELGLKDQEDSDGHLSVNLEYAPTEGTLDIKEDMSEPQEKKLSENTDFLAPGVSSFTDSNQQESITKREENQEQPRNYSHHQLNRSSKHSQGLRDQGNQEQDPNISNGEEEEEKEPGEVGTHNDNQERKTELPREHANSKQEEDNTQSDDILEESDQPTQVSKMQEDEFDQGNQEQEDNSNAEMEEENASNVNKHIQETEWQSQEGKTGLEAISNHKETEEKTVSEALLMEPTDDGNTTPRNHGVDDDGDDDGDDGGTDGPRHSASDDYFIPSQAFLEAERAQSIAYHLKIEEQREKVHENENIGTTEPGEHQEAKKAENSSNEEETSSEGNMRVHAVDSCMSFQCKRGHICKADQQGKPHCVCQDPVTCPPTKPLDQVCGTDNQTYASSCHLFATKCRLEGTKKGHQLQLDYFGACKSIPTCTDFEVIQFPLRMRDWLKNILMQLYEANSEHAGYLNEKQRNKVKKIYLDEKRLLAGDHPIDLLLRDFKKNYHMYVYPVHWQFSELDQHPMDRVLTHSELAPLRASLVPMEHCITRFFEECDPNKDKHITLKEWGHCFGIKEEDIDENLLF
With B3 the “Relative composition of CSF proteins bound: Ab2” value [1] was 1.4 ± 0.0 % of total protein, the “Identification status of CSF protein bound: αSN” value [2] was “*” and the “Identification status of CSF protein bound: FAS4-AD” value [3] was “—”. The “Relative composition of CSF proteins bound: Glucagon” value [4] was 0.4 ± 0.1 % of total protein, the “Relative composition of CSF proteins bound: Ab1” value [5] was 1.2 ± 0.1 % of total protein and the “Relative composition of CSF proteins bound: C-36” value [6] was 0.8 ± 0.4 % of total protein.

B4: EGF-containing fibulin-like extracellular matrix protein 1: CSF protein bound to fibrils (protein, UniProt Q12805 18-493, looked up)
EGF-containing fibulin-like …: QDTEETITYTQCTDGYEWDPVRQQCKDIDECDIVPDACKGGMKCVNHYGGYLCLPKTAQIIVNNEQPQQETQPAEGTSGATTGVVAASSMATSGVLPGGGFVASAAAVAGPEMQTGRNNFVIRRNPADPQRIPSNPSHRIQCAAGYEQSEHNVCQDIDECTAGTHNCRADQVCINLRGSFACQCPPGYQKRGEQCVDIDECTIPPYCHQRCVNTPGSFYCQCSPGFQLAANNYTCVDINECDASNQCAQQCYNILGSFICQCNQGYELSSDRLNCEDIDECRTSSYLCQYQCVNEPGKFSCMCPQGYQVVRSRTCQDINECETTNECREDEMCWNYHGGFRCYPRNPCQDPYILTPENRCVCPVSNAMCRELPQSIVYKYMSIRSDRSVPSDIFQIQATTIYANTINTFRIKSGNENGEFYLRQTSPVSAMLVLVKSLSGPREHIVDLEMLTVSSIGTFRTSSVLRLTIIVGPFSF
In the case of B4, the “Relative composition of CSF proteins bound: Ab2” value [1] is reported as 1.0 ± 0.3 % of total protein, the “Identification status of CSF protein bound: αSN” value [2] is reported as “*” and the “Identification status of CSF protein bound: FAS4-AD” value [3] is reported as “—”. For the same molecule, the “Relative composition of CSF proteins bound: Glucagon” value [4] was 0.2 ± 0.1 % of total protein, the “Relative composition of CSF proteins bound: Ab1” value [5] was 0.6 ± 0.2 % of total protein and the “Relative composition of CSF proteins bound: C-36” value [6] was 0.7 ± 0.1 % of total protein.

Source: article PMC6405930, “Conservation of the Amyloid Interactome Across Diverse Fibrillar Structures” (Scientific Reports, 2019)
